Source: patent US20230035235A1
Values belong to the substance of their own block, whether it stands above or below them.

Legend:
ACTL6A (human) [1] = target: ACTL6A (human) (UniProt O96019); assay: HA affinity purification of HA-DPF2 from HEK-293T nuclear extract, glycerol gradient fraction 14, mass spectrometry of co-purified proteins
BCL7A (human) [2] = target: BCL7A (human) (UniProt Q4VC05); assay: as above
BCL7C (human) [3] = target: BCL7C (human) (UniProt Q8WUZ0); assay: as above
SMARCB1 (human) [4] = target: SMARCB1 (human) (UniProt Q12824); assay: as above
Chain of SMARCB1 (human) (Q12824 whole entry): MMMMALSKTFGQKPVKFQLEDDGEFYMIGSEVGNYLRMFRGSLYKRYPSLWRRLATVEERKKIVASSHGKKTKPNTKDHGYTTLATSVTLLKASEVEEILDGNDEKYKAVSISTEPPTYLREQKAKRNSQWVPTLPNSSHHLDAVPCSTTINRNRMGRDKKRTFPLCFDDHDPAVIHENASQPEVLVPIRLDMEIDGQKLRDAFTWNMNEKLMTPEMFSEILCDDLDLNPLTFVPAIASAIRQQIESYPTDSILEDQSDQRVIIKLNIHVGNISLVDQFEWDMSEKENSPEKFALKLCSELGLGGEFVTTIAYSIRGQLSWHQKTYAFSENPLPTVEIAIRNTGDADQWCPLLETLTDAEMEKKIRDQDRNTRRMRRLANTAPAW

SMARCD1 (human) = SMARCD1 (human) (UniProt Q96GM5); assay: as above
Chain of SMARCD1 (human) (Q96GM5 whole entry): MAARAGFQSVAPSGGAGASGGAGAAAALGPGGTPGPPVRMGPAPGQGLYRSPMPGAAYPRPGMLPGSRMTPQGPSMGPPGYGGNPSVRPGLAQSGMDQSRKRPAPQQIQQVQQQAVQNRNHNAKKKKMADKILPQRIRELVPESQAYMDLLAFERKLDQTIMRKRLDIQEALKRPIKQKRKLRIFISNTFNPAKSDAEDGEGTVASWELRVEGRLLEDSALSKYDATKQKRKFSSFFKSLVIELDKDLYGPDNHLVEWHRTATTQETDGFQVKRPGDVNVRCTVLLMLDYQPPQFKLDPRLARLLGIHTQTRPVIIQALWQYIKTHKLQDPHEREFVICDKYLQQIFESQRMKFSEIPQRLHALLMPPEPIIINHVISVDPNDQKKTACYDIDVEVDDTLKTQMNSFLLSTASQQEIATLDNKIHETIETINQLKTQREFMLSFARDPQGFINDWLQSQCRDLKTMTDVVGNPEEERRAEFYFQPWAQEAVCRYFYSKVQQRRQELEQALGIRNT

SMARCD2 (human) = SMARCD2 (human) (UniProt Q92925); assay: as above
SMARCE1 (human) = SMARCE1 (human) (UniProt Q969G3); assay: as above
Chain of SMARCE1 (human) (Q969G3 whole entry): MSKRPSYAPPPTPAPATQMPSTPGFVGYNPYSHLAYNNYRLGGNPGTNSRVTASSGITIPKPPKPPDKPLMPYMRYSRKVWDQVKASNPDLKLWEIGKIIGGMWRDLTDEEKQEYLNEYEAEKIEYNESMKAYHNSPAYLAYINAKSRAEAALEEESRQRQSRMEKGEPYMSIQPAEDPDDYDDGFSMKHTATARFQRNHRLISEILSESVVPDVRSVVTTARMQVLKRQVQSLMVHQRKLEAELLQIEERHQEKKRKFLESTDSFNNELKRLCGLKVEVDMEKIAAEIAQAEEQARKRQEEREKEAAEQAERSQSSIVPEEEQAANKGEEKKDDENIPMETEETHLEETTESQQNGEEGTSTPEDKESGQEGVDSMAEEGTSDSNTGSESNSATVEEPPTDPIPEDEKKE

SS18 (human) = SS18 (human) (UniProt Q15532); assay: as above
Chain of SS18 (human) (Q15532 2-418 limits assumed): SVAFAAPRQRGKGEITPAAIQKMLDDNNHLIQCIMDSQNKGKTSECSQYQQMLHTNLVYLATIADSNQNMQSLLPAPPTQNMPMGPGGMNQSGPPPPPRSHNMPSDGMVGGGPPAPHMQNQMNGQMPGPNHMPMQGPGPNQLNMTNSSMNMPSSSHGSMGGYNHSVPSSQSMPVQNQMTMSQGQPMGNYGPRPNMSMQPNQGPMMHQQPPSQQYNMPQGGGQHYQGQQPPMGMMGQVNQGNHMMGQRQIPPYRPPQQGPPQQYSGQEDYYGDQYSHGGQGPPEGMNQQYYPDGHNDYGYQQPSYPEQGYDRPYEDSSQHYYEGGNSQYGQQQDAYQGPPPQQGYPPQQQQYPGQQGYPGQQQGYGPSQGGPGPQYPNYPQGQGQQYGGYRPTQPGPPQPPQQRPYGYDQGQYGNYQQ

SS18L1 (human) [5] = target: SS18L1 (human) (UniProt O75177); assay: as above
Chain of SS18L1 (human) (O75177 whole entry): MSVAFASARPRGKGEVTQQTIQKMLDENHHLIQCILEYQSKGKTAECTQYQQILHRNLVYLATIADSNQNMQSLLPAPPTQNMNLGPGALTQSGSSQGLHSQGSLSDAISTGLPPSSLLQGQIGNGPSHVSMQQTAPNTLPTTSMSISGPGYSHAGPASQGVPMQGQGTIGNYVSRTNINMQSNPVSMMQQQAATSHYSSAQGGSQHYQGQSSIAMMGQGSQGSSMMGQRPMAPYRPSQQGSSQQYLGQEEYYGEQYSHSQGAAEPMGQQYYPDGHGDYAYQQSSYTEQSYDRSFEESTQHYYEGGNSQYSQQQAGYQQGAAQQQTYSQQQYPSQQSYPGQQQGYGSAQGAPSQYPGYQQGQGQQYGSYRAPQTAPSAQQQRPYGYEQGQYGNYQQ

ACTL6A (human) [6] = target: ACTL6A (human) (UniProt O96019); assay: HA affinity purification from HEK-293T nuclear extract, glycerol gradient fraction 15, mass spectrometry (co-purification in the complex)
BCL7A (human) [7] = target: BCL7A (human) (UniProt Q4VC05); assay: as above
BCL7C (human) [8] = target: BCL7C (human) (UniProt Q8WUZ0); assay: as above
BRD7 (human) = BRD7 (human) (UniProt Q9NPI1); assay: as above
Chain of BRD7 (human) (Q9NPI1 whole entry): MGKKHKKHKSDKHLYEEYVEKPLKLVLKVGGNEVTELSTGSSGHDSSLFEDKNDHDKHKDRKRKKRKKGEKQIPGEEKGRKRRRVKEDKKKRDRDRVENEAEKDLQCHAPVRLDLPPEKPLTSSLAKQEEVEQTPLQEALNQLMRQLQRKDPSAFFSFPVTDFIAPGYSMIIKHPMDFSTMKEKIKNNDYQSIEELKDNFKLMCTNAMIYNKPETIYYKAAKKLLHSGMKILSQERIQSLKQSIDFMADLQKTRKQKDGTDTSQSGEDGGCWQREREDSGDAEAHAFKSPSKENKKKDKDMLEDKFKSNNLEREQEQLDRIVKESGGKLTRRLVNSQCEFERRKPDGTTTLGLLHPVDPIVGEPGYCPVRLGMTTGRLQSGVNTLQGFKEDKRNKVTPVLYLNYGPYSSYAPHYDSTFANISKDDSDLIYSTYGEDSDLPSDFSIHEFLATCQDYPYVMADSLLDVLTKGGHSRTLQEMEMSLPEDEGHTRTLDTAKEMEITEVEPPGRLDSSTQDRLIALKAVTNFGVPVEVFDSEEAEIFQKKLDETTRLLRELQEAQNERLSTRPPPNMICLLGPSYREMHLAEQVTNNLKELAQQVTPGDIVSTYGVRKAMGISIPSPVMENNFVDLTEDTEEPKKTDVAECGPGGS

BRD9 (human) = BRD9 (human) (UniProt Q9H8M2); assay: as above
Chain of BRD9 (human) (Q9H8M2 whole entry): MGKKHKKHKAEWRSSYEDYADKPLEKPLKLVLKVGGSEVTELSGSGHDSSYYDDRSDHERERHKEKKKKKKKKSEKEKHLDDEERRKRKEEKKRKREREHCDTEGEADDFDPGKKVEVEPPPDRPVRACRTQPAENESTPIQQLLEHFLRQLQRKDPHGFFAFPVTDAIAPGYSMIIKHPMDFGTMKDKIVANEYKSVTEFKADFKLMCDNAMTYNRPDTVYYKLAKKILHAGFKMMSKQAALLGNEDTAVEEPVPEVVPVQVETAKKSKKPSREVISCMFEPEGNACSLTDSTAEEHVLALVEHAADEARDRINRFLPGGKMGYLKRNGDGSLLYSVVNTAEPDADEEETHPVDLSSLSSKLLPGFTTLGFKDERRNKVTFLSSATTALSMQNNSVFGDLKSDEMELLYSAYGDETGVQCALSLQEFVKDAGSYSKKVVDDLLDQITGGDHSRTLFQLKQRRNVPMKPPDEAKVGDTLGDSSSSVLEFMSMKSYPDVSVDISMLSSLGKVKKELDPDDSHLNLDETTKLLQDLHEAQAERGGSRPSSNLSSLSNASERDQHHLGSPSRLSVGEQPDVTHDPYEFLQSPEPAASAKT

DPF1 (human) = DPF1 (human) (UniProt Q92782); assay: as above
DPF2 (human) = DPF2 (human) (UniProt Q92785); assay: as above
Chain of DPF2 (human) (Q92785 2-391 limits assumed): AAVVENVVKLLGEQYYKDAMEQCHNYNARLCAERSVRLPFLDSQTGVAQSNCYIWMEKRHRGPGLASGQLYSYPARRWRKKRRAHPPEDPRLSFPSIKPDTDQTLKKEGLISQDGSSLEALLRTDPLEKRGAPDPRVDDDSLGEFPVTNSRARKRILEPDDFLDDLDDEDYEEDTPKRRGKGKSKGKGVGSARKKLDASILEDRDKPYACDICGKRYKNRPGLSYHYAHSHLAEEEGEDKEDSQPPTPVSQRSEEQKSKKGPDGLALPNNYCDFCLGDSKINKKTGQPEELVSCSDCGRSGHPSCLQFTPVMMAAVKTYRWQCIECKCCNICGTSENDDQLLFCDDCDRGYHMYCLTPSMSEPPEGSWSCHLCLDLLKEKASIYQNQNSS

DPF3 (human) = DPF3 (human) (UniProt Q92784); assay: as above
Chain of DPF3 (human) (Q92784 whole entry): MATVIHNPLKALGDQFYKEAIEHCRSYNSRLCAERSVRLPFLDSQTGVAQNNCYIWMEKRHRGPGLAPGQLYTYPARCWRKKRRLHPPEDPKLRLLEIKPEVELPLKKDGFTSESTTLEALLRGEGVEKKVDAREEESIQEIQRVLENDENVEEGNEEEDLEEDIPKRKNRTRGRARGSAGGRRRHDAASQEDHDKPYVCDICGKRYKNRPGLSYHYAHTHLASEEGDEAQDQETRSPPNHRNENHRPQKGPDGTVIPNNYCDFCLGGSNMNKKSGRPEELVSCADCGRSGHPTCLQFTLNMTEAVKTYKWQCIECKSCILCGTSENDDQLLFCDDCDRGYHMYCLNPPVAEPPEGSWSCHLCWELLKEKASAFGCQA

GLTSCR1 (human) = GLTSCR1 (human) (UniProt Q9NZM4); assay: as above
GLTSCR1L (human) = GLTSCR1L (human) (UniProt Q6AI39); assay: as above
PBRM1 (human) = PBRM1 (human) (UniProt Q86U86); assay: as above
PHF10 (human) = PHF10 (human) (UniProt Q8WUB8); assay: as above
SMARCB1 (human) [9] = target: SMARCB1 (human) (UniProt Q12824); assay: as above
SS18L1 (human) [10] = target: SS18L1 (human) (UniProt O75177); assay: as above
[11] = target: DPF1 (entry E9PDV3) (human); assay: HA affinity purification of HA-SMARCD1 mSWI/SNF complexes from HEK-293T nuclear extract, glycerol gradient fraction 15, mass spectrometry; co-purification in the complex, not necessarily direct contact
[12] = target: SMARCA4 (entry Q9HBD4) (human); assay: as above
[13] = target: DPF2 (Double PHD Fingers 2) (human) (UniProt Q92785); assay: colloidal blue stain and fluorometric analysis of DPF2-purified complexes

Chain of ACTL6A (human) (O96019 2-429 limits assumed): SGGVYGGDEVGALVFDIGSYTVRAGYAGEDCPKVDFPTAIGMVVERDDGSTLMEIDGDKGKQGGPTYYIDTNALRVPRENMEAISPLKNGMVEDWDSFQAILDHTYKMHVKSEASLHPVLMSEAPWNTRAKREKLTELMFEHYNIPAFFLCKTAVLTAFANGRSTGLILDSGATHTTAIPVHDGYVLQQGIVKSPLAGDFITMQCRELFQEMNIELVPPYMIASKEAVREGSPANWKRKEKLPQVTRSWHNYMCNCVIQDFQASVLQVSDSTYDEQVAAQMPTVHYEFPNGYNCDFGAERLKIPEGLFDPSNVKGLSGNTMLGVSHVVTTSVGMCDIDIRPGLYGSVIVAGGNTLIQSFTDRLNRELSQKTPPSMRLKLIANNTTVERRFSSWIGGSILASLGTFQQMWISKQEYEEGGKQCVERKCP
Chain of BCL7A (human) (Q4VC05 whole entry): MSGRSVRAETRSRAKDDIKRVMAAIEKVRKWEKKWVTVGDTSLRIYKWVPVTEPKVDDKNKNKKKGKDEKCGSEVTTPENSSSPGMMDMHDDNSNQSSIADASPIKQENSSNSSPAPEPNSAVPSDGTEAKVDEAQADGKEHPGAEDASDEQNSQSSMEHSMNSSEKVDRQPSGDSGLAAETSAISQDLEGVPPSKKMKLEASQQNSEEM

total peptides (ACTL6A (human) [1]): 61 peptides
unique peptides (ACTL6A (human) [1]): 23 peptides
total peptides (BCL7A (human) [2]): 36 peptides
total peptides (BCL7C (human) [3]): 13 peptides
unique peptides (BCL7C (human) [3]): 7 peptides
total peptides (SMARCB1 (human) [4]): 62 peptides
unique peptides (SMARCB1 (human) [4]): 22 peptides
total peptides (SMARCD1 (human)): 83 peptides
unique peptides (SMARCD1 (human)): 37 peptides
total peptides (SMARCD2 (human)): 51 peptides
unique peptides (SMARCD2 (human)): 32 peptides
total peptides (SMARCE1 (human)): 118 peptides
unique peptides (SMARCE1 (human)): 40 peptides
total peptides (SS18 (human)): 2 peptides
unique peptides (SS18 (human)): 2 peptides
total peptides (SS18L1 (human) [5]): 3 peptides
unique peptides (SS18L1 (human) [5]): 2 peptides
Substance: HA-DPF2 (from UniProt Q92785 1-391)

total peptides (ACTL6A (human) [6]): 58 peptides
total peptides (BCL7A (human) [7]): 33 peptides
unique peptides (BCL7A (human) [7]): 12 peptides
total peptides (BCL7C (human) [8]): 19 peptides
unique peptides (BCL7C (human) [8]): 8 peptides
total peptides (BRD7 (human)): 29 peptides
unique peptides (BRD7 (human)): 19 peptides
total peptides (BRD9 (human)): 8 peptides
unique peptides (BRD9 (human)): 8 peptides
total peptides (DPF1 (human)): 7 peptides
unique peptides (DPF1 (human)): 6 peptides
total peptides (DPF2 (human)): 41 peptides
unique peptides (DPF2 (human)): 19 peptides
total peptides (DPF3 (human)): 12 peptides
unique peptides (DPF3 (human)): 10 peptides
total peptides (GLTSCR1 (human)): 11 peptides
unique peptides (GLTSCR1 (human)): 10 peptides
total peptides (GLTSCR1L (human)): 1 peptides
unique peptides (GLTSCR1L (human)): 1 peptides
total peptides (PBRM1 (human)): 115 peptides
unique peptides (PBRM1 (human)): 79 peptides
total peptides (PHF10 (human)): 14 peptides
unique peptides (PHF10 (human)): 14 peptides
total peptides (SMARCB1 (human) [9]): 75 peptides
total peptides (SS18L1 (human) [10]): 2 peptides
unique peptides (SS18L1 (human) [10]): 2 peptides
total peptides [11]: 1
unique peptides [11]: 1
total peptides [12]: 1
unique peptides [12]: 1
Substance: HA-SMARCD1 (from UniProt Q96GM5 1-515)

stoichiometry relative to DPF2 bait (copies per DPF2) [13]: 1
Substance: SMARCC2 (SWI/SNF related, matrix associated, actin dependent regulator of chromatin subfamily c member 2) (from UniProt Q8TAQ2 1-1214)
